The values that follow come from paper PMC7188244.

The target in experiment [1] is HA-tagged SQSTM1-NUP214^FGmut fusion protein (human) (UniProt P35658). The experiment in a line: co-IP; nuclear lysates of stably transduced MEFs; anti-HA antibody overnight at 4°C, Protein G Dynabeads; washes with 150 and 175 mM NaCl buffer; immunoblot with anti-Crm1 and anti-HA, Crm1 signal/HA signal quantified on LI-COR Odyssey; cells untreated or treated with LMB (10 nM, 2 hours). A general note: In western blotting, separated proteins are transferred to a membrane and probed.

For experiment [2], the target named is HA-tagged SQSTM1-NUP214 fusion protein (human) (UniProt P35658). Described as above.

For “Crm1 (chromosome region maintenance 1) (from UniProt Q6P5F9 1-1071)”, in experiment [1], the percent reduction of Crm1 binding by LMB (10 nM, 2 hours) is 52%.

“Crm1 (chromosome region maintenance 1) (from UniProt Q6P5F9 1-1071) (natural protein)” came in with a percent reduction of Crm1 binding by LMB (10 nM, 2 hours) in experiment [2] of 58%. In addition, the percent reduction of Crm1 binding against SQSTM1-NUP214 in experiment [1] was > 50%.
